Measured values published in US7422883B2, “Map kinase integrin-binding domain” (Inter-K Pty Limited, priority 2000, dated 2008).
No end group written: not given here. *: point of attachment. Biotin = O=C1N[C@H]2[C@H](CS[C@H]2CCCCC(=O)*)N1

Tests used:
[1] = system: MAP kinase activity in WiDr wild-type cells; experiment: MAP kinase assay, serum-stimulated WiDr cells; assay type: cell-based, human; conditions: inhibitors 40 μM added one hour before serum, serum 30 min
Experimental: (§1) Cultures of WiDr and HT29 mock and antisense β6 transfectants were established by seeding 1×10^6 cells/5 ml of culture medium in 25 cm^2 tissue culture flasks. Cells were incubated at 37° C. in humidified CO2 for 24 hours before serum starvation in serum-free medium for the next 16 hours. Foetal calf serum was then added to a final concentration of 10% for 30 mins before MAP kinase assays were performed. […] The ability of cells to transfer phosphate from [γ^32P]-ATP to a synthetic peptide that contains specifically a p42/p44 MAP kinase phosphorylation site was measured as described in the manufacturer's instructions. [^32P]-labelled peptides were spotted onto PEI-cellulose paper, unbound radioactivity was washed with 75 mM phosphoric acid and bound [^32P]-labelled peptides were measured by liquid scintillation counting. Protein estimation was performed on each cell lysate used and enzyme activity calculated as described in the manufacturer's instructions. […]
(§2) The effect of MEK (MAP kinase) inhibitors UO126 and PD98059 on MAP kinase activity in WiDr and HT29 wild-type cells was tested in the absence/presence of serum. […] Serum was then added for 30 min and MAP kinase activity assessed before and after addition of serum. […]

[2] = system: MAP kinase activity in HT29 wild-type cells; experiment: MAP kinase assay, serum-stimulated HT29 cells; assay type: cell-based, human; conditions: inhibitors 40 μM added one hour before serum, serum 30 min
Experimental: as §1, §2

[3] = system: gelatinase B secretion by SW480 β6 transfectants; experiment: Gelatinase B secretion, gelatin zymogram of tumour-conditioned medium; assay type: cell-based, human; conditions: 40 μM, serum-free, 48 hours, versus DMSO control
Experimental: SW480 β6 transfectants were cultured under serum-free conditions for 48 hours in the absence/presence of the MEK inhibitor PD98059 (40 μM) or DMSO (vehicle control). Tumour-conditioned medium was assayed for gelatinase B by analysis of equal protein loads in a gelatin zymogram.

ERK2 = molecular target: T1, ERK2 (Mus musculus, UniProt P63085); experiment: ELISA of ERK2 binding to biotinylated integrin cytoplasmic domain peptides; conditions: for binding of peptide to ERK2: ERK2 (1 μm), FIG. 35C; for binding of ERK2 to integrin subunit peptides: corrected for non-specific binding, FIG. 34; for binding of ERK2 to peptide: ERK2 cleaved from GST-ERK2 by thrombin, FIG. 23; for binding of non-phosphorylated ERK2 to peptide: over a range of concentrations of ERK2, FIG. 18
T1 construct: GST (glutathione-S-transferase); made in house
T1 sequence (P63085 whole entry, the tested form may be a part): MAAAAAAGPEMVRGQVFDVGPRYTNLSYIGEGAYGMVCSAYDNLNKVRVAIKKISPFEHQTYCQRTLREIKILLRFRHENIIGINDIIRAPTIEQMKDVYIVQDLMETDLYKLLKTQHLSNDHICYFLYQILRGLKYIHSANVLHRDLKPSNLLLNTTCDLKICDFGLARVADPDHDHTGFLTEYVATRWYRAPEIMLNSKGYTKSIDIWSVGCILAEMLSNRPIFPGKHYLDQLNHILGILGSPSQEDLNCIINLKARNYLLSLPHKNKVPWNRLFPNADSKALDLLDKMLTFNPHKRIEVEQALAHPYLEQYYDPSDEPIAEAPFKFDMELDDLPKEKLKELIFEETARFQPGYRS
Experimental: Peptide fragments corresponding to regions of the cytoplasmic tail domain of the β6 subunit were screened in an enzyme-linked immunosorbent assay (ELISA) for binding with ERK2. The 52 amino acid long β6 cytoplasmic tail is shown in FIG. 16 as are the amino acid sequences for the cytoplasmic domains of the β1 to β3 subunits. In particular, four synthetic peptides designated fragment 1 to fragment 4 were prepared and biotinylated at the N-terminal end of each, respectively (Auspep Pty Ltd, Melbourne Australia).
(§3) Overlapping biotinylated fragments 1 to 4 were coated onto streptavidin coated polystyrene plates (Pierce, Rockford Ill. USA, Cat No. 15125) and the ELISA performed substantially according to manufacturers instructions. Briefly, wells are washed with 3×200 μl of wash buffer (TBS, 0.1% BSA, 0.05% Tween 20 or SuperBlock™ blocking buffer in TBS, Pierce, Prod. No. 37535) prior to addition of biotinylated peptides (100 μl) and incubation for 1 hr at room temperature to allow for capture of the peptides on the plate. Following another washing step, peptides were overlayed with GST-ERK, ERK (or JNK-1) alone at a volume of 100 μl per well, and the plates incubated for a further 1 hr at room temperature before removal of any unbound ERK by further washing.
Binding of ERK to the peptides is detected using 100 μl anti-ERK1/2 mAb SC1647 (Santa Cruz) as the primary antibody at a dilution of 1:700 (isotype matched antibody IgG2b is used as a control). This is followed by another washing step and addition of 100 μl rabbit anti-mouse antibody (Biorad) conjugated to alkaline phosphatase at a concentration of 1:1000 for 30 minutes again at room temperature. A […] of detection reagent (alkaline phosphatase detection kit-Biorad) is then introduced into each well after a final washing step and allowed to react for 15-30 minutes at room temperature in the dark before absorbance is measured at 405 nm. All dilutions of peptides, MAP kinase and antibodies were performed using the wash buffer. GST-ERK is a fusion protein consisting of ERK coupled to glutathione-S-transferase and purified from host cells transfected with pGEX vector.
To further localise the binding domain on the cytoplasmic tail of the β6 subunit, progressively shorter peptides from the region of the β6 cytoplasmic tail corresponding to peptide fragment 2 were synthesised, biotinylated and the capacity to associate or otherwise bind to ERK2 assessed as described above. The binding of GST.ERK2 to a 15 mer test peptide (seq. 4) having the amino acid sequence RSKAKWQTGTNPLYR (SEQ ID NO: 7) and a 10 mer test peptide having the sequence RSKAKWQTGT (SEQ ID NO: 21) is shown in FIG. 20 compared to fragment 2 over a range of concentrations of the peptides. […] 4 peptide compared to fragment 2 was found. Binding of ERK2 to the seq. 3 peptide was substantially less than that observed for seq. 4.
Binding of ERK2 to the seq.4 peptide (RSKAKWQTGTNPLYR) (SEQ ID NO: 7) was compared with peptides corresponding to regions of the cytoplasmic domain of integrin subunits β1, β2, β3 and β5. The amino acid sequences for those peptides is shown below:
To evaluate this, cell lysates containing equal protein loads were prepared from SW480 wild-type cells and SW480 cells transfected with either vector alone (mock transfectants), wild type β6 or the β6 deletion mutant Δ746-764 (lacking the sequence EAERSKAKWQTGTNPLYRG (SEQ ID NO: 26), Cone et al, 1994). The lysates were immunoprecipitated with mAbs R6G9 (anti-β6), P1F6 (anti-β5) or murine IgG control antibody (mlgG). […] To determine whether β5 can bind ERK2 in vitro, a 15-mer peptide fragment derived from the β5 cytoplasmic domain corresponding to the ERK binding domain on β6 was tested for its ability to bind ERK2 in an ELISA.

JNK-1 = molecular target: T2, JNK-1 (Homo sapiens, UniProt P45983); experiment: ELISA of JNK-1 binding to β6 cytoplasmic tail peptide; conditions: JNK-1 0.05-1.5 μm/100 μl; FIG. 24
T2 construct: purchased Santa Cruz
T2 sequence (P45983 whole entry, species assumed): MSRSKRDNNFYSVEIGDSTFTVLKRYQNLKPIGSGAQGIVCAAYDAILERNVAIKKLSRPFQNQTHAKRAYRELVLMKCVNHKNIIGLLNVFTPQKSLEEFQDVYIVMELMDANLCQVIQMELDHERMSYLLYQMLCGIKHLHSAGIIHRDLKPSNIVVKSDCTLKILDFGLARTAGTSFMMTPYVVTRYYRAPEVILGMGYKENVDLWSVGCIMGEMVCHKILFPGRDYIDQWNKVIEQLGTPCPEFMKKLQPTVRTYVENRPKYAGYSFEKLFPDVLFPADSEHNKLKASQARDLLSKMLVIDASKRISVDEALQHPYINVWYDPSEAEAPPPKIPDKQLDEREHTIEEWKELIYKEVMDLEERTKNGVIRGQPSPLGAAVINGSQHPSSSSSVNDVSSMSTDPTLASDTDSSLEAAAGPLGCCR
Experimental: as §3
Briefly, 0.05-1.5 μm/100 μl of JNK-1 (Santa Cruz) was aliquoted into wells of a 96 well culture place containing increasing concentrations of the β6 cytoplasmic domain tail peptide used in Example 3. For comparison purposes, non-phosphorylated GST-ERK2 (0.05-1.5 μm/100 μl) was aliquoted into wells containing β6 cytoplasmic tail peptide or peptide fragments 1 or 2, respectively. Binding of JNK-1 was detected using mouse anti-JNK-1 mAb SC 474-G (Santa Cruz) and HRP-conjugated goat anti-mouse antibody.

β6-ERK2 interaction = experiment: ERK2 peptide competition ELISA for β6-ERK2 binding; conditions: increasing concentrations incubated with ERK2
Experimental: To determine the β6-binding domain(s) of ERK2, a biotinylated β6 cytoplasmic tail peptide spanning the cytoplasmic tail of β6 was incubated with a soluble ERK2 peptide fragment in a total incubation volume of 20 μl phosphate buffered saline (PBS). The mixture was stood for 45 minutes at room temperature (RT). Soluble ERK2 in PBS was then added and the solution left for a further 30 minutes. Following incubation the reaction volume was made to 400 μl with carbonate buffer (0.015 M Na2CO3 and 0.035M NaHCO3 at pH 9.6) and 100 μl of this mixture added to each of 4 wells of a polystyrene ELISA plate (Nunc, Maxicorp). ERK2/peptides were allowed to attach to the plastic substrate for 18 to 20 hours at RT in the dark. After immobilisation the overlying buffer was flicked from the wells and excess solid surface blocked with casein (0.5% skim milk) in PBS for 60 minutes at RT. Wells were washed (×3) with was buffer (PBS plus 0.5% skim milk powder, 0.05% Tween-20) prior to incubation with the anti-β6 antibody SC-6632 (Santa Cruz) diluted 1:500 v/v in wash buffer (2 wells) or a control antibody (2 wells). Incubation with the primary antibody was carried out for 30 minutes at RT. […] Specific binding events were quantitatively determined using a colourimetric substrate system by measuring absorbency at […] (Bio-Rad, AP substrate kit). […]

Molecule: COc1cccc(-c2cc(=O)c3ccccc3o2)c1N [PD98059]
- serum-stimulated MAP kinase activity [1]: inhibitable
- serum-stimulated MAP kinase activity [2]: inhibitable
- gelatinase B secretion [3]: reduced gelatinase B secretion compared with controls

Molecule: KFEKEKMNAKWDTGENPIYK [β1, peptide of the β1 cytoplasmic domain]
- binding of peptide to ERK2 (ERK2): failed to bind ERK2

Molecule: RARAKWDTANNPLYK [β3, peptide of the β3 cytoplasmic domain]
- binding of ERK2 to integrin subunit peptides (ERK2): Binding of ERK2 to the β5 and β3 peptides was also found

Molecule: RSKAK (also: biotinylated, site not given here) [5 mer peptide]
- binding of ERK2 to peptide (ERK2): Negligible binding

Molecule: RSKAKNPLYR [10(4), 4 is omitted]
- binding of ERK2 to peptide (ERK2): Comparable binding of ERK2 to seq. 4

Molecule: RSKAKWQTGT (also: biotinylated, site not given here) [seq. 3, 10 mer test peptide of the β6 cytoplasmic tail]
- binding of GST.ERK2 to peptide (ERK2; over a range of concentrations of the peptides, compared to fragment 2, FIG. 20): substantially less than that observed for seq. 4

Molecule: RSKAKWQTGTNPLYRGSTST (Biotin-RSKAKWQTGTNPLYRGSTST) [fragment 2, biotinylated peptide of the β6 cytoplasmic tail]
- binding of non-phosphorylated GST.ERK2 to peptide (ERK2; GST.ERK2 0.25 μg/100 μl, peptide 1 μg/100 μl, FIG. 17): significant binding
- binding of non-phosphorylated ERK2 to peptide (ERK2): Significant binding

Molecule: RSRARYEMASNPLYR [β5, 15-mer peptide of the β5 cytoplasmic domain]
- binding of peptide to ERK2 (ERK2): Dose-dependant binding
- binding of ERK2 to integrin subunit peptides (ERK2): Binding of ERK2 to the β5 and β3 peptides was also found

Molecule: β6 cytoplasmic tail peptide: peptide spanning the 52 amino acid long β6 cytoplasmic tail (HDRKEVAKFEAERSKAKWQTGTNPLYRGSTSTFKNVTYKHREKQKVDLSTDS)
- binding of non-phosphorylated ERK2 to peptide (ERK2): Significant binding
- binding of JNK-1 to peptide (JNK-1): Significant binding
- concentration at which maximal β6 bound to ERK was detected (β6-ERK2 interaction): 0.25 µM
